Experimental data reported in patent publication US20210130420A1, “RECOMBINANT BINDING PROTEINS TARGETING HER2 AND SERUM ALBUMIN, AND THEIR USES” (Molecular Partners AG, priority 2016, published 2021).

Columns and labels:
[1] = molecular target: extracellular domains of EGFR (Homo sapiens, UniProt P00533); assay: Surface plasmon resonance interaction with EGFR; type: binding
[2] = Pharmacokinetic comparison of Protein #21 with Protein #33; type: in vivo; details: variant lacking the C-terminal serum albumin binding domain
Excerpt: Many options are known in the art for pharmacokinetic engineering including PEGylation, polypeptide extension, Fc-fusion, serum albumin-fusion, and binding to serum albumin, amongst others (Kontermann, R (Ed.) “Therapeutic proteins: strategies to modulate their plasma half-lives”, Wiley-VCH Verlag GmbH, 2012, ISBN 978-3-527-32849-9). Starting from e.g. the combination of designed ankyrin repeat domains with binding specificity for HER2 comprising SEQ ID NOs: 16 and 17, there are hundreds of potential drug candidate variants (choice of pharmacokinetic modification engineering, choice of polypeptide linker (e.g. SEQ ID NOs: 2 to 9 amongst many others), amongst other aspects). […] Results of the effect of the choice of the polypeptide linker are shown e.g. in Example 10.
For the studies in this example Protein #21-His, Protein #24-His, Protein #28-His, Protein #29-His, and Protein #30-His were prepared according to Example 1. Protein #28-His was additionally PEGylated using a 40 kDa PEG moiety (NOF Sunbright GL2-400MA) by maleimid coupling of the PEG-moiety onto the free C-terminal cysteine of Protein #28-His, followed by purification to homogeneity using standard purification methods, procedures well known to the person skilled in the art. Pharmacokinetic analyses in mouse or cynomolgus monkey were performed as described in Examples 8 and 9.

[3] = molecular target: extracellular domains of HER3 (Homo sapiens, UniProt P21860); assay: Surface plasmon resonance interaction with HER3; type: binding
[4] = molecular target: human HER2 and human serum albumin (Homo sapiens, UniProt P02768+P04626); assay: Surface plasmon resonance simultaneous binding
HER2 = HER2 (Homo sapiens, UniProt P04626); assay: Phosphorylation state ELISA, BT474 cells; type: cell-based; parameters: BT474 cells were treated for 18 hours with either Protein #21 (100 nM); host or cells: BT474; details: 100 nM, 18 hours
GXA281 = assay: Gastric cancer PDX mouse model GXA281; type: in vivo; details: FIG. 4E; Protein #21 40 mg/kg every three days for 6 times i.v.; Lapatinib 100 mg/kg/day for 21 days
Experimental: In a similar experiment, Protein #21 was further tested in the gastric cancer PDX mouse model GXA281, well known to the person skilled in the art, in comparison to the standard of care Lapatinib (FIG. 4E). Briefly, tumor implantation and tumor growth monitoring was done as described above. Lapatinib was dosed at 100 mg/kg/day for 21 days daily […]. and Protein #21 at 40 mg/kg every three days for 6 times i.v.

[5] = tested on: SKBR-3, SKOV-3, NCI-N87, ZR-75-30, HCC1419, or MDA-MB175; assay: Proliferation inhibition on a variety of cancer cell-lines; type: cell-based
HER1/EGFR = assay: Phosphorylation state ELISA, BT474 cells; type: cell-based, human; details: 100 nM, 18 hours
MAPK1 and MAPK3 = assay: Phospho-proteome mass spectrometry; type: cell-based; details: 100 nM, 18 hours
Excerpt: Protein #21 was expressed and purified as described in Example 1. […] Cells were then subjected to a phospho-proteome mass-spectrometry analysis as described by Britton, D., et al. (Britton, D., Zen, Y., Quaglia, A., Selzer, S., Mitra, VI., Lössner, C., Jung, S., Bohm, G., Schmid, P., Prefot, P., Hoehle, C., Koncarevic, S., Gee, J., Nicholson, R., Ward, M., Castellano, L., Stebbing, J., Zucht, H. D., Sarker, D., Heaton, N., and Pike, I., 2014. PLOS One 9 (3), e90948). […] At other phosphorylation sites, phosphorylation is increased (772).

Foxo3a protein = assay: Cellular levels of Foxo3a protein in NCI-N87 cells; type: cell-based; details: compared to an exposure to PBS only
Excerpt: Protein #21 was expressed and purified as described in Example 1. […] Cells were then subjected to a phospho-proteome mass-spectrometry analysis as described by Britton, D., et al. (Britton, D., Zen, Y., Quaglia, A., Selzer, S., Mitra, VI., Lössner, C., Jung, S., Bohm, G., Schmid, P., Prefot, P., Hoehle, C., Koncarevic, S., Gee, J., Nicholson, R., Ward, M., Castellano, L., Stebbing, J., Zucht, H. D., Sarker, D., Heaton, N., and Pike, I., 2014. PLOS One 9 (3), e90948).
It is known to the practitioner in the art, that Akt1 phosphorylates Foxo3a, resulting in the degradation of Foxo3a and promotion of cell survival. Inhibition of Act phosphorylation leads to stabilization of Foxo3a and thus increase in Foxo3a levels. At increased levels Foxo3a can translocate to the nucleus and induce apoptosis.

BT474 cells = assay: BT474 cell proliferation, BrdU-labeling; type: cell-based, human; details: cellular assays of Example 6 and screening
Experimental: Protein #21-His and Protein #23-His, were expressed and purified as described in Example 1. Effects of the recombinant binding proteins on BT474 cell proliferation were determined by measuring DNA synthesis using BrdU-labeling (BrdU, Cell Proliferation ELISA, Roche). Briefly, 10000 BT474 cells were seeded per well in a 96 well plate in 100 ul complete medium and incubated for 24 hours. Recombinant binding proteins or controls were added for an additional 72 hours. BrdU for cell labeling was added for the last 24 hours. Labeled (proliferating) cells were detected according to the manufactures protocol. The data were analyzed using the GraphPad prism software, plotting log [c] on the x-axis against OD450-602 nm on the y-axis. Data were fitted using a non-linear regression fit (log(antagonist) vs. response—Variable slope (four parameters)) deriving IC50 values.
Protein #21 and Protein #21-His were expressed and purified as described in Example 1. Standard BrdU cell proliferation assays were performed, well-known to the person skilled in the art. Briefly, effects on cell proliferation of Protein #21-His, other compounds, or Protein #21-His in combination with other compounds, were determined by measuring DNA synthesis using BrdU-labeling (BrdU, Cell Proliferation ELISA, Roche). Briefly, 10000 cells were seeded per well in a 96 well plate in 100 μl complete medium and incubated for 24 hours. Protein #21-His and/or compounds were added for an additional 72 hours. BrdU for cell labeling was added for the last 24 hours. Labeled (proliferating) cells were detected according to the manufactures protocol. The data were analyzed using the Graph Pad prism software (log [c] vs. OD450-602 nm plot). Data were fitted using a non-linear regression fit (log(antagonist) vs. response—variable slope (four parameters)).

interaction with extracellular domains of EGFR [1]: does not interact | interaction with extracellular domains of HER3 [3]: does not interact | HER2 Pan-Phospho-Tyrosine (HER2): 0.04 fold change to PBS
B1: Protein #21: SEQ ID NO: 21; HER2 binding domains (SEQ ID NOs: 16, 17) flanked by two serum albumin binding domains (SEQ ID NO: 14), SEQ ID NO: 9 linkers (protein)
chain: GSDLGKKLLEAARAGQDDEVRELLKAGADVNAKDYFSHTPLHLAARNGHLKIVEVLLKAGADVNAKDFAGKTPLHLAANEGHLEIVEVLLKAGADVNAQDIFGKTPADIAADAGHEDIAEVLQKAAGSPTPTPTTPTPTPTTPTPTPTGSDLGIKLLFAAAKGQDDEVRELLKAGADVNAKDFQGVTPLHIAAQSGHLEIVEVLLKAGADVNAKDVTGDTPLHLAAQHGHLEIVEVLLKAGADVNAQDERGWTPADLAADWGHEDIAEVLQKAAGSPTPTPTTPTPTPTTPTPTPTGSDLGKKLLEAARAGQDDEVRELLKAGADVNAKDEYGLTPLYLATAHGHLEIVEVLLKAGADVNAVDAIGFTPLHLAAFIGHLEIAEVLLKAGADVNAQDKFGKTPADIAAGAGNEDIAEVLQKAAGSPTPTPTTPTPTPTTPTPTPTGSDLGKKLLEAARAGQDDEVRELLKAGADVNAKDYFSHTPLHLAARNGHLKIVEVLLKAGADVNAKDFAGKTPLHLAANEGHLEIVEVLLKAGADVNAQDIFGKTPADIAADAGHEDIAEVLQKAA
modifications: Protein comprising four designed ankyrin repeat domains
pharmacokinetic properties compared to Protein #33 [2]: markedly improved pharmacokinetic properties, in particular a longer terminal half-life | simultaneous binding of human HER2 and human serum albumin [4]: can bind human HER2 and human serum albumin simultaneously | inhibition of tumor growth (GXA281): strong inhibition of tumor growth compared to Lapatinib | proliferation inhibition on cancer cell-lines [5]: strong proliferation inhibition | HER1/EGFR Pan-Phospho-Tyrosine (HER1/EGFR): 0.40 fold change to PBS | phosphorylated peptides that map to MAPK1 and MAPK3 (MAPK1 and MAPK3): considerably downregulated | increase of cellular levels of Foxo3a protein (Foxo3a protein): 2.8 fold | cellular potency (BT474 cells): high cellular potency
